Assay [1] concerns the target human CD33 antigen (human) (UniProt P20138). As to the kind of experiment: immunoreactivity of the radiolabeled HuM195-DOTA conjugate, Preparation 1; format not described.
For assay [2] the target is unchanged. Description: immunoreactivity of the radiolabeled HuM195-DOTA conjugate, Preparation 2; format not described.

From patent US20220125962A1 come the findings set out here.

Consider “^225Ac-HuM195 (HuM195-DOTA conjugate labeled with thorium cow-generated ^225Ac) (antibody)”, for which the results for the Immunoreactivity (%) in assay [1] and in assay [2] were 72.2% and 82%, respectively.

B1: ^225/7Ac-HuM195 (HuM195-DOTA conjugate labeled with linac/accelerator-generated ^225Ac containing a molar excess of ^227Ac) (antibody, INN chains, looked up, V domains shown)
VH: QVQLVQSGAEVKKPGSSVKVSCKASGYTFTDYNMHWVRQAPGQGLEWIGYIYPYNGGTGYNQKFKSKATITADESTNTAYMELSSLRSEDTAVYYCARGRPAMDYWGQGTLVTVSS
VL: DIQMTQSPSSLSASVGDRVTITCRASESVDNYGISFMNWFQQKPGKAPKLLIYAASNQGSGVPSRFSGSGSGTDFTLTISSLQPDDFATYYCQQSKEVPWTFGQGTKVEIK
modifications: DOTA conjugate labelled with 225Ac/227Ac
In the case of B1, the figures for the Immunoreactivity (%) in assay [1] and in assay [2] were 65.4% and 83%, respectively.
